Experimental data taken from the Human Domainome abundance scans (Beltran et al. 2025).
± gives the uncertainty stated by the source.

B1: POU domain, class 3, transcription factor 2, residues 262 to 338; numbered along this chain, P20265 (parent)
chain: EDTPTSDDLEQFAKQFKQRRIKLGFTQADVGLALGTLYGNVFSQTTICRFEALQLSFKNMCKLKPLLNKWLEEADSS

Variants of: B1
Assay: abundance fitness (aPCA) (normalised: wild type 0, dead -1); higher = more abundant; growth selection in yeast, the domain comes from the species named
Settings: Homo sapiens

In order of falling abundance fitness:
1. FDTPTSDDLEQFAKQFKQRRIKLGFTQADVGLALGTLYGNVFSQTTICRFEALQLSFKNMCKLKPLLNKWLEEADSS [E1F]  0.231 ± 0.27
2. EDTPTSDDLLQFAKQFKQRRIKLGFTQADVGLALGTLYGNVFSQTTICRFEALQLSFKNMCKLKPLLNKWLEEADSS [E10L]  0.128 ± 0.03
3. EDTPTSDDLEQFAKQFKQRRIKLGFTQADVGLALGTLYGNVFSQTTICRFEALQLSFKNMCKLKPLLNKWLEEADSA [S77A]  0.115 ± 0.038
4. EDTPTWDDLEQFAKQFKQRRIKLGFTQADVGLALGTLYGNVFSQTTICRFEALQLSFKNMCKLKPLLNKWLEEADSS [S6W]  0.098 ± 0.03
5. EDTPTSGDLEQFAKQFKQRRIKLGFTQADVGLALGTLYGNVFSQTTICRFEALQLSFKNMCKLKPLLNKWLEEADSS [D7G]  0.064 ± 0.12
6. EDTPTSDDLEQFAKQFKQRRIELGFTQADVGLALGTLYGNVFSQTTICRFEALQLSFKNMCKLKPLLNKWLEEADSS [K22E]  0.057 ± 0.035
7. EDTPTSDDLEQFAKQFKQRRIKLGFTQADVGLQLGTLYGNVFSQTTICRFEALQLSFKNMCKLKPLLNKWLEEADSS [A33Q]  0.015 ± 0.042
8. EDTPTSDDLEQFAKQFKQRRIKLGFTQADVGLALGTLYGNVFSQTTICRFEALQLSFKNMCKLKPLLAKWLEEADSS [N68A]  -0.007 ± 0.077
9. EDTPTSDDLCQFAKQFKQRRIKLGFTQADVGLALGTLYGNVFSQTTICRFEALQLSFKNMCKLKPLLNKWLEEADSS [E10C]  -0.01 ± 0.05
10. EDTPTSDDLEQFAKQFKQRRIKLGFTQADVGLALGTLYGNVFSQTTICRFEALQLSFKNMCKLKPLLNKWLEEADSE [S77E]  -0.016 ± 0.051
11. EDTPTSDDLEQFAKQFKQRRIKLGFTQADVGLALGTLYGNVFSQTTICRFEALQLSFKNMCKLKPLLNKWLEEAMSS [D75M]  -0.022 ± 0.037
12. EDKPTSDDLEQFAKQFKQRRIKLGFTQADVGLALGTLYGNVFSQTTICRFEALQLSFKNMCKLKPLLNKWLEEADSS [T3K]  -0.023 ± 0.048
13. EDTPLSDDLEQFAKQFKQRRIKLGFTQADVGLALGTLYGNVFSQTTICRFEALQLSFKNMCKLKPLLNKWLEEADSS [T5L]  -0.041 ± 0.034
14. EDTPDSDDLEQFAKQFKQRRIKLGFTQADVGLALGTLYGNVFSQTTICRFEALQLSFKNMCKLKPLLNKWLEEADSS [T5D]  -0.042 ± 0.04
15. EDTPTSDDLEQFAKQFKQRRIKLGFTQADVGLALGTLYGNVFSQTTICRFEALQLSFKNMCKLAPLLNKWLEEADSS [K64A]  -0.06 ± 0.035
16. EDTPTSDDLEQFAKQFKQRRIKLGFTQADVGLALGTLYGNVFSQTTICRFEALQLSEKNMCKLKPLLNKWLEEADSS [F57E]  -0.071 ± 0.034
17. EDTPTSDDLEQFAMQFKQRRIKLGFTQADVGLALGTLYGNVFSQTTICRFEALQLSFKNMCKLKPLLNKWLEEADSS [K14M]  -0.082 ± 0.093
18. EDTPTSDDLEQFIKQFKQRRIKLGFTQADVGLALGTLYGNVFSQTTICRFEALQLSFKNMCKLKPLLNKWLEEADSS [A13I]  -0.12 ± 0.061
19. EDTPTSDDLEQFAKQFKQRRISLGFTQADVGLALGTLYGNVFSQTTICRFEALQLSFKNMCKLKPLLNKWLEEADSS [K22S]  -0.131 ± 0.041
20. EDTPTSDDLEQFAKQFKQRRIKLGFTQADVGLALGTLYGNVFSQTTICRFEALQLSFKNMCKLKPLLNKWLERADSS [E73R]  -0.147 ± 0.066
21. EDTPTSDDLEQFAKQFKQRRIKLGFTQADVGLALGTLYGNVFSQTTICRFEALQLSFKNMCHLKPLLNKWLEEADSS [K62H]  -0.156 ± 0.06
22. EDTPTSDDLEQFAKQFKQRRIKLGFTQADVGLALGTLYGNVFSQTTICRFEALQLSFKNMCKLKPLLNKWLEESDSS [A74S]  -0.168 ± 0.039
23. EDTPTSDDLEQFAKQFKQRRIKLGFTQVDVGLALGTLYGNVFSQTTICRFEALQLSFKNMCKLKPLLNKWLEEADSS [A28V]  -0.204 ± 0.033
24. EDTPTSDDLEQFAKQFKQRRIKLGFTQADVGLALGTLYGNVFSQTTICRFEALQLSFKNMCCLKPLLNKWLEEADSS [K62C]  -0.25 ± 0.053
25. EDTPTSDDLEQFAKQFKQRRIKLGFTQADVGLKLGTLYGNVFSQTTICRFEALQLSFKNMCKLKPLLNKWLEEADSS [A33K]  -0.264 ± 0.061
26. EDTPTSDDLEQFAKQFKQRRIKLGFTQADVGLALGTLYGNVFSQTTICRFEALQLSFKNMCKLFPLLNKWLEEADSS [K64F]  -0.264 ± 0.1
27. EDTPTSDDLEQFAKQFKQRRIKLGFTQADVGLALGTLYGNVFSQTTICRFEALQLQFKNMCKLKPLLNKWLEEADSS [S56Q]  -0.385 ± 0.064
28. EDTPTSDDLEQFAKQFKQRRIKLGFTQADVGLALGTLYGNVGSQTTICRFEALQLSFKNMCKLKPLLNKWLEEADSS [F42G]  -0.397 ± 0.033
29. EDTPTSDDLEQFAKQFKQRRIKLGFTQACVGLALGTLYGNVFSQTTICRFEALQLSFKNMCKLKPLLNKWLEEADSS [D29C]  -0.542 ± 0.062
30. EDTPTSDDLEQFAKQFKQRRIKLGFTQAWVGLALGTLYGNVFSQTTICRFEALQLSFKNMCKLKPLLNKWLEEADSS [D29W]  -0.588 ± 0.049
31. EDTPTSDDLEQFAKQFKQRRIKLGFTQAFVGLALGTLYGNVFSQTTICRFEALQLSFKNMCKLKPLLNKWLEEADSS [D29F]  -0.649 ± 0.098
32. EDTPTSDDLEQFAKQFKQRRIKLGFTQADVGLALGTLYWNVFSQTTICRFEALQLSFKNMCKLKPLLNKWLEEADSS [G39W]  -0.715 ± 0.064
33. EDTPTSDDLEQFAKQFKQRRIKLGFTQADVGLALGTLYGNVFSQTTICRFEALQLSFKNMCKDKPLLNKWLEEADSS [L63D]  -0.785 ± 0.11
34. EDTPTSDDLEQFAKQFKQRRIKLGFTQADVGLALGTLYGNVFSQTTICRFSALQLSFKNMCKLKPLLNKWLEEADSS [E51S]  -0.88 ± 0.096
35. EDTPTSDDLEQFAKQFKQRRIKLGFTQADVGLALGTLYGNVFSQTTICRFMALQLSFKNMCKLKPLLNKWLEEADSS [E51M]  -1 ± 0.21
36. EDTPTSDDLEQFAKQFKQRRIKLGFTQADQGLALGTLYGNVFSQTTICRFEALQLSFKNMCKLKPLLNKWLEEADSS [V30Q]  -1.11 ± 0.23
